The target in the experiment is T1, purified Flag-ATG2A-His protein (human, UniProt Q2TAZ0 1-1938).
T1 construct: ATG2A, human; Flag-ATG2A-His with a C-terminal His tag; not shown: His tag, C-terminal, kept
As to the kind of experiment: liposome co-flotation; 100 nm liposomes with 5% PI3P (2% Rhod-PE, 30% POPE, 63% DOPC), 1 mM lipids, incubated with 4.28 uM ANKFY1, 0.5 uM ATG2A or both at 37 °C for 1 h; 50 mM HEPES pH 8.0, 300 mM NaCl, 1 mM TCEP; floated on a histodenz gradient; topmost fraction analysed by SDS-PAGE and western blot. The note with it: both partners purified. On the technique in general: A western blot detects proteins with antibodies after separation by electrophoresis.

T1 sequence (Q2TAZ0 whole entry): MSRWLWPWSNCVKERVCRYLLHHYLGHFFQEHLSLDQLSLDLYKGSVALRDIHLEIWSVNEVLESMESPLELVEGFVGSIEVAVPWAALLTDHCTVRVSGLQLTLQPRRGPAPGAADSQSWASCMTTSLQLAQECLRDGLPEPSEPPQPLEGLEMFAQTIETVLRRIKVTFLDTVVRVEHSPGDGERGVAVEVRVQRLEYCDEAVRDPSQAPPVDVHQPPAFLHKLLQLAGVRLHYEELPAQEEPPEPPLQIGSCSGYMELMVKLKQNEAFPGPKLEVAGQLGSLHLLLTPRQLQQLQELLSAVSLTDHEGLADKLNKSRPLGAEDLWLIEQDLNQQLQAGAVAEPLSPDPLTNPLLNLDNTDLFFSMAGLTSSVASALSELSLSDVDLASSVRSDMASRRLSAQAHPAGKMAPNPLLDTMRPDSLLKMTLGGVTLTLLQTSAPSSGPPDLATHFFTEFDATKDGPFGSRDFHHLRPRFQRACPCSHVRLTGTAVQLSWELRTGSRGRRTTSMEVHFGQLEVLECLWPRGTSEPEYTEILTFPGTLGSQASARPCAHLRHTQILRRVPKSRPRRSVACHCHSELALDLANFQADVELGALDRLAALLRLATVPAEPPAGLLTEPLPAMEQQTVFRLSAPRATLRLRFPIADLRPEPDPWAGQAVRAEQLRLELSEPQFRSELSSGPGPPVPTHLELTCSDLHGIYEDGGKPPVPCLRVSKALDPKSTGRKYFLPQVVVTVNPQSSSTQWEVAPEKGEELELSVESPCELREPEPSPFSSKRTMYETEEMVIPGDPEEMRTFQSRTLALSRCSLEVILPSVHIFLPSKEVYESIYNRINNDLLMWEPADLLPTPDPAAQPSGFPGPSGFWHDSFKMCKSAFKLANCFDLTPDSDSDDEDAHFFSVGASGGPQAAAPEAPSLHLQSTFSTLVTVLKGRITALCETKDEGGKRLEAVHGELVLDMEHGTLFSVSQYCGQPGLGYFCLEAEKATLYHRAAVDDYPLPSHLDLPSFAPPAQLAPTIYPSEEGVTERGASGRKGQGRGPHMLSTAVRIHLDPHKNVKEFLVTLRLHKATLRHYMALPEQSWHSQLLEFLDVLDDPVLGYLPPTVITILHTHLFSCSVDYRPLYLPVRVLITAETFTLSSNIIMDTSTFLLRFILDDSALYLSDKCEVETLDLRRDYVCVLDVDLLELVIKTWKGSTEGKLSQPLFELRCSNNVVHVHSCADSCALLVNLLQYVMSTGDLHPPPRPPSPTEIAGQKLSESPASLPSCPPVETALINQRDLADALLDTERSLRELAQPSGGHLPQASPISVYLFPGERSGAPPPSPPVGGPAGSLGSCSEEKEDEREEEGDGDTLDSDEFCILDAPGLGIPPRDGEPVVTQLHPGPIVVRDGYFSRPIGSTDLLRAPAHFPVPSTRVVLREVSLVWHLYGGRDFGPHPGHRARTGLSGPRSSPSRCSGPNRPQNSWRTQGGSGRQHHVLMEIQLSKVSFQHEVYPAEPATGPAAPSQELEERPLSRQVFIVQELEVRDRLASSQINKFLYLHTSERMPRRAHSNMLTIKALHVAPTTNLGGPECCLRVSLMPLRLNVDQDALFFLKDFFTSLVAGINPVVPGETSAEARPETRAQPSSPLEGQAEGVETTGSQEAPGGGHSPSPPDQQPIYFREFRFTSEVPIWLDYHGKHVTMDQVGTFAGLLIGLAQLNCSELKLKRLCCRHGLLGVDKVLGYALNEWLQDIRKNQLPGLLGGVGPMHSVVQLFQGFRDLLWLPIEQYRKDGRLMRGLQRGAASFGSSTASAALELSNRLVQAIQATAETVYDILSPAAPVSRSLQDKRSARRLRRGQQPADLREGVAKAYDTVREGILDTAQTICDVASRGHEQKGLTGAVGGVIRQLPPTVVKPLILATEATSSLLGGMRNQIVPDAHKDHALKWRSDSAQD

B1: purified Flag-ANKFY1 full-length protein (natural protein, human, UniProt Q9P2R3 1-1169, looked up)
chain: MAEEEVAKLEKHLMLLRQEYVKLQKKLAETEKRCALLAAQANKESSSESFISRLLAIVADLYEQEQYSDLKIKVGDRHISAHKFVLAARSDSWSLANLSSTKELDLSDANPEVTMTMLRWIYTDELEFREDDVFLTELMKLANRFQLQLLRERCEKGVMSLVNVRNCIRFYQTAEELNASTLMNYCAEIIASHWDDLRKEDFSSMSAQLLYKMIKSKTEYPLHKAIKVEREDVVFLYLIEMDSQLPGKLNEADHNGDLALDLALSRRLESIATTLVSHKADVDMVDKSGWSLLHKGIQRGDLFAATFLIKNGAFVNAATLGAQETPLHLVALYSSKKHSADVMSEMAQIAEALLQAGANPNMQDSKGRTPLHVSIMAGNEYVFSQLLQCKQLDLELKDHEGSTALWLAVQHITVSSDQSVNPFEDVPVVNGTSFDENSFAARLIQRGSHTDAPDTATGNCLLQRAAGAGNEAAALFLATNGAHVNHRNKWGETPLHTACRHGLANLTAELLQQGANPNLQTEEALPLPKEAASLTSLADSVHLQTPLHMAIAYNHPDVVSVILEQKANALHATNNLQIIPDFSLKDSRDQTVLGLALWTGMHTIAAQLLGSGAAINDTMSDGQTLLHMAIQRQDSKSALFLLEHQADINVRTQDGETALQLAIRNQLPLVVDAICTRGADMSVPDEKGNPPLWLALANNLEDIASTLVRHGCDATCWGPGPGGCLQTLLHRAIDENNEPTACFLIRSGCDVNSPRQPGANGEGEEEARDGQTPLHLAASWGLEETVQCLLEFGANVNAQDAEGRTPIHVAISSQHGVIIQLLVSHPDIHLNVRDRQGLTPFACAMTFKNNKSAEAILKRESGAAEQVDNKGRNFLHVAVQNSDIESVLFLISVHANVNSRVQDASKLTPLHLAVQAGSEIIVRNLLLAGAKVNELTKHRQTALHLAAQQDLPTICSVLLENGVDFAAVDENGNNALHLAVMHGRLNNIRVLLTECTVDAEAFNLRGQSPLHILGQYGKENAAAIFDLFLECMPGYPLDKPDADGSTVLLLAYMKGNANLCRAIVRSGARLGVNNNQGVNIFNYQVATKQLLFRLLDMLSKEPPWCDGSYCYECTARFGVTTRKHHCRHCGRLLCHKCSTKEIPIIKFDLNKPVRVCNICFDVLTLGGVS
notes: ANKFY1, human, full length (ANKFY1-FL), N-terminal Flag tag, pCDNA4-TO vector; also called ANKFY1-FL; ANKFY1-Flag; source: 293S cells, purified (anti-Flag M2 resin, eluted with 3x Flag peptide); not shown: Flag, N-terminal, kept
B1: the binding result is “binds”.

(Values after paper PMC11018839, “ANKFY1 bridges ATG2A-mediated lipid transfer from endosomes to phagophores” (Cell Discovery, 2024).)
